Common to all, as to assay: cross-linking
Experiment [1] addresses G129C-apoA-I (human).
The target of experiment [2] is G129C-apoA-I (human). This is another data set of the same source.
The target of experiment [3] is K118C-apoA-I (human) (UniProt P02647).
Experiment [4] shares this target. The source holds these as a separate data set.
For experiment [5], the target named is K140C-apoA-I (human).
Experiment [6] concerns the target K140C-apoA-I (human). The source holds these as a separate data set.

Read-outs that look alike come from different tables or passages of the source.

As for G129C-apoA-I (natural protein), the percent homodimer in the experiment with G129C-apoA-I (human) [1] was found to be 38%; with G129C-apoA-I (human) [2] it was 22%.
Turning to “K118C-apoA-I (from UniProt P02647 19-267) (natural protein)”, the percent homodimer is 17% with K118C-apoA-I (human) [3] and 4% with K118C-apoA-I (human) [4].
As for K140C-apoA-I (natural protein), the percent homodimer with K140C-apoA-I (human) [5] is 65%; with K140C-apoA-I (human) [6] it was 41%.
